Assay results: patent US9107936B2, “Antagonists of GRASP55 for use as a medicament” (Institut National de la Sante et de la Recherche Medicale …, priority 2012, dated 2015)

Columns and labels:
JAM-B ΔPDZbm = target: T1, JAM-B ΔPDZbm (Mus musculus, UniProt Q9JI59); assay: yeast two hybrid interaction of Grasp55 constructs with JAM-B ΔPDZbm; type: binding, murine; set-up: key: Symbols “+++” and “−” indicates the growth of yeast on selective media as shown in the FIGURE 13; Symbols “+++” and “−” indicates the growth of yeast on selective media as shown in the FIGURE 13
T1 construct: amino-acids 258 to 298 of murine JAM-B; expressed in transfected cells; host or cells: AH109 yeast strain
T1 sequence (Q9JI59 258-295 limits assumed): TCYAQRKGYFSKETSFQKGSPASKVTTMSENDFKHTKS
Text: (§1) The different GRASP55 constructs were cloned into pGBT9 GW vector (Ga14 DNA-binding domain fusion vector, Trp) as well in the pACT2 GW vector (Gal4 DNA-activation domain fusion vector, Leu) using the Gateway technology (Invitrogen). Plasmids were then co-transformed in AH109 yeast strain (/MATa, trp1-901, leu2-3, 112, ura3-52, his3-200, gal4/A, /gal80/A, /LYS2::GAL1//UAS//-GAL1//TATA//-HIS3, GAL2//UAS//-GAL2//TATA//-ADE2, URA3::MEL1//UAS//-MEL1//TATA//-lacZ, MEL1/) in accordance with the previously described transformation protocol (Chien et al. 1991. Proc Natl Acad Sci USA. 88:9578-82). Following co-transformation with the two vectors containing the different constructs (as well as the empty vector to test self activation), yeasts were plated onto Synthetic Complete (SC) medium minus Leucine (−L), minus Tryptophan (−W), minus Histidine (−H) and incubated at 30° C. for 4 to 5 days. All yeast media were prepared as previously described.
(§2) In examples 2, the inventors have previously shown that interaction between Grasp55 and C-terminal part of JAM-C requires the peptidic sequence between residues 1 to 160 of Grasp55 (PDZI+II) but cannot occur with residues 1 to 79 of Grasp55 (PDZI) by yeast two hybrid and ELISA assay (FIGS. 2 and 8). In the present example, the interaction sites between JAMs or metalloproteinases involved in JAM regulation and Grasp55 have been mapped using new constructs. To this end, yeast two-hybrid and GST fusion proteins encompassing residues 1 to 107, 108 to 208, and 1 to 208 corresponding respectively to the PDZI′, PDZII′ and PDZI′+II′ constructs have been generated. The former PDZII construct (residues 80 to 160) have also been used to test interaction with the C-terminal sequences of ADAM 10 (of sequence SEQ ID NO: 41) and ADAM 17 (of sequence SEQ ID NO: 42) known to regulate JAM-A and JAM-C release (Table 1). GST fusion proteins were produced and yeast two-hybrid assay was performed as previously described in example 1.

JAM-C ΔPDZbm = target: T2, JAM-C ΔPDZbm (Mus musculus, UniProt Q9D8B7); assay: yeast two hybrid interaction of Grasp55 constructs with JAM-C ΔPDZbm; type: binding, murine; set-up: key: Symbols “+++” and “−” indicates the growth of yeast on selective media as shown in the FIGURE 13; Symbols “+++” and “−” indicates the growth of yeast on selective media as shown in the FIGURE 13
T2 construct: amino-acids 263 to 310 of murine JAM-C; expressed in transfected cells; host or cells: AH109 yeast strain
T2 sequence (Q9D8B7 263-307 limits assumed): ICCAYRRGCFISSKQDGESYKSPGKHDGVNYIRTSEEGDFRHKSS
Text: as §1, §2

ADAM10 = target: T3, ADAM10 (Mus musculus, UniProt O35598, DEL741-741); assay: yeast two hybrid interaction of Grasp55 constructs with ADAM10 C-terminal sequence; type: binding, murine; set-up: key: Symbols “+++” and “−” indicates the growth of yeast on selective media as shown in the FIGURE 13; Symbols “+++” and “−” indicates the growth of yeast on selective media as shown in the FIGURE 13
T3 construct: expressed in transfected cells; host or cells: AH109 yeast strain
T3 sequence (O35598 with tags, fused parts or gaps DEL741-741): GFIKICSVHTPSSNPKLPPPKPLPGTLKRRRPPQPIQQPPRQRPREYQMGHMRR
Text: as §1, §2

JAM-B = target: T4, JAM-B (Mus musculus, UniProt Q9JI59); assay: yeast two hybrid interaction of Grasp55 constructs with JAM-B; type: binding, murine; set-up: key: Symbols “+++” and “−” indicates the growth of yeast on selective media as shown in the FIGURE 13; Symbols “+++” and “−” indicates the growth of yeast on selective media as shown in the FIGURE 13
T4 construct: amino-acids 258 to 298 of murine JAM-B; expressed in transfected cells; host or cells: AH109 yeast strain
T4 sequence (Q9JI59 258-298): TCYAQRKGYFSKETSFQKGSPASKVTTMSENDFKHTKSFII
Text: as §1, §2

JAM-C = target: T5, JAM-C (Mus musculus, UniProt Q9D8B7); assay: yeast two hybrid interaction of Grasp55 constructs with JAM-C; type: binding, murine; set-up: key: Symbols “+++” and “−” indicates the growth of yeast on selective media as shown in the FIGURE 13; Symbols “+++” and “−” indicates the growth of yeast on selective media as shown in the FIGURE 13
T5 construct: amino-acids 263 to 310 of murine JAM-C; expressed in transfected cells; host or cells: AH109 yeast strain
T5 sequence (Q9D8B7 263-310): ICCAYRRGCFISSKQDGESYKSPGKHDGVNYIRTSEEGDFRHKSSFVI
Text: as §1, §2

JAM-A = target: T6, JAM-A (Mus musculus, UniProt O88792, R268T); assay: yeast two hybrid interaction of Grasp55 constructs with JAM-A; type: binding, murine; set-up: key: Symbols “+++” and “−” indicates the growth of yeast on selective media as shown in the FIGURE 13; Symbols “+++” and “−” indicates the growth of yeast on selective media as shown in the FIGURE 13
T6 construct: amino-acids 260 to 299 of murine JAM-A; expressed in transfected cells; host or cells: AH109 yeast strain
T6 sequence (O88792 260-300 R268T): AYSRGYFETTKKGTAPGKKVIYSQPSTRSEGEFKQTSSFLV
Text: as §1, §2

ADAM17 = target: T7, ADAM17 (Mus musculus, UniProt Q9Z0F8, A775V/P752S); assay: yeast two hybrid interaction of Grasp55 constructs with ADAM17 C-terminal sequence; type: binding, murine; set-up: key: Symbols “+++” and “−” indicates the growth of yeast on selective media as shown in the FIGURE 13; Symbols “+++” and “−” indicates the growth of yeast on selective media as shown in the FIGURE 13
T7 construct: expressed in transfected cells; host or cells: AH109 yeast strain
T7 sequence (Q9Z0F8 693-827 P752S/A775V): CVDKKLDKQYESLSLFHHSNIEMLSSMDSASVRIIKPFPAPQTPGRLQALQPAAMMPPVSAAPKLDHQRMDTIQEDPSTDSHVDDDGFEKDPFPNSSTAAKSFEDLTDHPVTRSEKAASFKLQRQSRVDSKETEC
Text: as §1, §2

JAM-A ΔPDZbm = target: T8, JAM-A ΔPDZbm (Mus musculus, UniProt O88792, R268T); assay: yeast two hybrid interaction of Grasp55 constructs with JAM-A ΔPDZbm; type: binding, murine; set-up: key: Symbols “+++” and “−” indicates the growth of yeast on selective media as shown in the FIGURE 13; Symbols “+++” and “−” indicates the growth of yeast on selective media as shown in the FIGURE 13
T8 construct: amino-acids 260 to 299 of murine JAM-A; expressed in transfected cells; host or cells: AH109 yeast strain
T8 sequence (O88792 260-297 R268T): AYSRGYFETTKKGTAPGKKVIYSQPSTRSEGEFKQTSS
Text: as §1, §2

B16F10 cells [1] = assay: wound healing assay (cell migration); type: cell-based, mouse; details: B16F10 stably transfected with shRNA; shctrl 249±5; Mean+/−SEM
Description: Transient transfections were performed on a 50% confluent monolayer of B16F10 cells with either 10 nM of siRNA or 5 μg of shRNA against luciferase used as a control or shRNA against GRASP55 in Lipofectamine RNAimax (Invitrogen). Transfection efficiency was monitored at 24 h by qRT-PCR and Western blots for the expression of GRASP55 transcript or protein. For selection of stable transfectants, cells were grown in DMEM containing 10 μg/ml of puromycine (Sigma Aldrich) starting 48 h after transfection.
For in vitro wound healing assays, 80% confluent monolayers of wild-type B16F10 cells or B16F10 cells transfected with various siRNA or shRNA were grown in both chambers of Ibidi culture inserts with defined cell free gaps. Cells were subjected to serum starvation for 24 h, before wounds were created by removing Ibidi culture inserts that define cell gaps of 400 μm. The wound healing was carried out for 8 h in complete DMEM medium and was recorded at various times after wounding. Analysis of wound closure was performed using Metamorph software and is expressed as mean speed per minute.

B16F10 cells [2] = assay: ELISA of soluble JAM-C in cell culture supernatant; type: cell-based, mouse; details: B16F10 control 0.27±0.02; mean±SEM
Description: An ELISA was designed to determine the concentration of soluble JAM-C in cell culture supernatants. Ninety-six-well plates (Nalge Nunc International) were coated overnight at room temperature with rat anti-mouse JAM-C antibody H36 (home-made). Plates were washed and blocked with buffer containing PBS and 2% of bovine albumin for 2 hours. Cell culture supernatants from different cell conditions were incubated during 3 hours. Plates were washed, and polyclonal rabbit anti-JAM-C (501) was added for 1 hour at room temperature. After three washes, donkey anti-rabbit HRP antibody was put on. To reveal the final read out, the substrate of HRP, tetramethylbenzidine ([…]) is adjoined. The absorbance lecture (D.O at 450 nm) is carried out on a ELISA POLARstar reader.

Substance | interaction with JAM-B ΔPDZbm (yeast growth on selective media) (JAM-B ΔPDZbm) | interaction with JAM-C ΔPDZbm (yeast growth on selective media) (JAM-C ΔPDZbm) | interaction with ADAM10 (yeast growth on selective media) (ADAM10) | interaction with JAM-B (yeast growth on selective media) (JAM-B) | interaction with JAM-C (yeast growth on selective media) (JAM-C) | interaction with JAM-A (yeast growth on selective media) (JAM-A) | interaction with ADAM17 (yeast growth on selective media) (ADAM17) | interaction with JAM-A ΔPDZbm (yeast growth on selective media) (JAM-A ΔPDZbm) | mean velocity (B16F10 cells [1]) [nm/min] | quantity of soluble JAM-C in cell culture supernatant (B16F10 cells [2]) [ng/mL]
PDZI: Grasp55 construct, residues 1 to 79 | − | − | − | − | − | − | − | − |  | 
PDZI + II: Grasp55 construct, residues 1 to 160 | − | − | − | +++ | +++ | +++ | − | − |  | 
shGRASP55: shRNA against mouse GRASP55 in pSUPER.retro, target SEQ ID NO: 11, strands SEQ ID Nos. 12 and 13 (chain 1 CGGUUCAAGAUUAAAUAAATT; chain 2 AATTTATTTAATCTTGAACCG) |  |  |  |  |  |  |  |  | 184 ± 6 | 0.21 ± 0.01
PDZII: Grasp55 construct, residues 80 to 160 | − | − | +++ | − | − | − | +++ | − |  | 
